This note sets out measurements from paper doi:10.1101/536094 (bioRxiv, 2019).

For data set [1], the target named is Chlamydomonas reinhardtii CaMKII hub domain (Chlamydomonas reinhardtii). The data set can be described thus: native MS.
The target is the same in data set [2]. As to the kind of experiment: crystal structure.
Data set [3] addresses Volvox carteri f. nagarensis CaMKII hub domain (Volvox carteri f. nagarensis). As to the kind of experiment: native MS.
Data set [4] deals with Gonium pectoral CaMKII hub domain (Gonium pectoral). As to the kind of experiment: native MS.
The data set “native MS” concerns the molecule itself. As to the kind of experiment: native MS.
The data set “crystal structure” concerns the molecule itself. The data set can be described thus: crystal structure.

Changes are numbered by the printed parent chain. Several values for one entry are separate records, joined by “and”; a condition that tells them apart may be missing. Equal values may be shown once.

Consider “Chlamydomonas reinhardtii CaMKII hub domain (domain or fragment)”, for which the stoichiometry N in data set [1] and in data set [2] was 18 subunits in each case.

Turning to “Volvox carteri f. nagarensis CaMKII hub domain (domain or fragment)”, in data set [3], the stoichiometry N (commonly a count of units in the complex or per binding partner) was 18 subunits and 20 subunits. Take “Gonium pectoral CaMKII hub domain (domain or fragment)”: the stoichiometry N in data set [4] is 16 subunits and 18 subunits.

B1: wild-type human CaMKII-α hub domain (domain or fragment, UniProt Q9UQM7 345-475, looked up)
chain: VRKQEIIKVTEQLIEAISNGDFESYTKMCDPGMTAFEPEALGNLVEGLDFHRFYFENLWSRNSKPVHTTILNPHIHLMGDESACIAYIRITQYLDAGGIPRTAQSEETRVWHRRDGKWQIVHFHRSGAPSV
With B1, the “stoichiometry N” value in “native MS” was 12 subunits and 14 subunits.

B2: six-mutant human CaMKII-α hub domain (domain or fragment, UniProt Q9UQM7 345-475, looked up)
chain: B1 chain with T10N, E11Q, T68N, I70M, I120H, F123M
For the molecule B2, the “stoichiometry N” value in the data set “crystal structure” amounted to 14 subunits; in the data set “native MS”, 16 subunits.
